In patent publication US20040092720A1 (US Dept. of Health and Human Services, published 2004):

Key:
recombinant human IL-6 [1] = molecular target: T1, recombinant human IL-6 (human, UniProt P05231 30-212, labeled with radioactive iodine); assay: radioiodinated IL-6 on peptide array
T1 construct: Labeled probe in solution, added to wells that carry the synthetic peptides; also called IL-6 ligand; Interleukin-6

recombinant human IL-6 [2] = molecular target: T1, recombinant human IL-6; assay: radioiodinated IL-6 on peptide array; experiment D11-D57
Method: Synthetic peptide arrays were constructed in 96-well microtiter plates in accordance with the method set forth in WO 91/02714 (Saxinger), and used to test the binding of recombinant human IL-6 that had been labeled with radioactive iodine (radiolabeling by standard methods). After incubating the radiolabeled IL-6 ligand in a well with each synthetic peptide, a washing step was performed to remove unbound label, and the relative level of radioactivity remaining in each well of the plate was evaluated to determine the relative affinity of each peptide for IL-6 ligand.

Row | Binder | Counts/minute bound (recombinant human IL-6 [1]) [counts/minute] | Counts/minute bound (recombinant human IL-6 [2]) [counts/minute] | also measured
1 | KKPFPEDLKSLDLFKKEKINTEGH [Peptide E71] | 2690 |  | 
2 | FERSKQVSSVNEEDFVRLKQQISD [Peptide E84] | 1020 |  | 
3 | GGSLAFGTLLCIAIVL [Peptide D16] |  | 2460 | 
4 | QMYSDGNFTDVSVVEIEANDKKPF [Peptide E69] | 1190 |  | 
5 | GGSLAFGTLLCIAI [Peptide D18] |  | 1180 | 
6 | QHESSPDISHFERSKQVSSVNEED [Peptide E83] | 1250 |  | 
7 | HVDGGDGILPRQQYFKQNCSQHES [Peptide E81] | 1100 |  | 
8 | SHIAQWSPHTPPRHNFNSKDQMYS [Peptide E67] | 1200 |  | 
9 | PPRHNFNSKDQMYSDGNFTDVSVV [Peptide E68] | 1230 |  | 
10 | FGTLLCIAIVLRFKKT [Peptide D32] |  | 21800 | 
11 | GGSLAFG (also called GGSLAFG) [Peptide D25] |  | 952 | 
12 | ESTQPLLDSEERPEDLQLVDHVDG [Peptide E79] | 1380 |  | 
13 | FNKRDLIKKHIWPNVPDPSKSHIA [Peptide E65] | 5740 |  | 
14 | GGSLAFGTLLC [Peptide D21] |  | 1110 | 
15 | VSAADAFGPGTEGQVERFETVGME [Peptide E88] | 1090 |  | 
16 | GGSLAFGTLL [Peptide D22] |  | 1000 | 

Row | Binder | Counts/minute bound (recombinant human IL-6 [1]) [counts/minute] | Counts/minute bound (recombinant human IL-6 [2]) [counts/minute] | also measured
17 | VGMEAATDEGMPKSYLPQTVRQGG [Peptide E90] | 1380 |  | 
18 | GGSLAFGT [Peptide D24] |  | 981 | 
19 | GSGQMKMFQEVSAADAFGPGTEGQ [Peptide E87] | 1000 |  | 
20 | LRFKKT [Peptide D42] |  |  | Counts/minute bound (counts/minute) (recombinant human IL-6 [2]): 1960
21 | GGSLAFGTLLCI [Peptide D20] |  | 1200 | 
22 | GGSLAFGTLLCIAIVLRFKKA (alanine-scan variant of the domain IV 21-mer) [Peptide D44] |  | 21400 | 
23 | GGSLAFGTLLCIAIVLAFKKT (alanine-scan variant of the domain IV 21-mer) [Peptide D48] |  | 29400 | 
24 | GGSLAFGTLLCIAIVLRFAKT (alanine-scan variant of the domain IV 21-mer) [Peptide D46] |  | 30800 | 
25 | GGSLAFATLLCIAIVLRFKKT (alanine-scan variant of the domain IV 21-mer) [Peptide D57] |  | 22300 | 
26 | GGSLAFGTLLCIAIVLRFKAT (alanine-scan variant of the domain IV 21-mer) [Peptide D45] |  | 28600 | 
27 | GGSLAFGTLACIAIVLRFKKT (alanine-scan variant of the domain IV 21-mer) [Peptide D54] |  | 22000 | 
28 | TEGQVERFETVGMEAATDEGMPKS [Peptide E89] | 1130 |  | 
29 | LAFGTLLCIAIVLRFKKT [Peptide D30] |  | 22700 | 
30 | QNTSSTVQYSTVVHSGYRHQVPSV [Peptide E76] | 1200 |  | 
31 | NEEDFVRLKQQISDHISQSCGSGQ [Peptide E85] | 1110 |  | 

Second part, led by results:

Row | Counts/minute bound (recombinant human IL-6 [1]) [counts/minute] | Counts/minute bound (recombinant human IL-6 [2]) [counts/minute] | Binder | also measured
32 | 1130 |  | SSCMSSSRPSISSSDENESSQNTS [Peptide E74] | 
33 | 1250 |  | TVVHSGYRHQVPSVQVFSRSESTQ [Peptide E77] | 
34 | 1230 |  | VPSVQVFSRSESTQPLLDSEERPE [Peptide E78] | 
35 |  | 1050 | GGSLAF (also called GGSLAF) [Peptide D26] | 
36 |  | 1150 | GGSLAFGTLLCIA [Peptide D19] | 
37 |  | 24000 | AFGTLLCIAIVLRFKKT [Peptide D31] | 
38 | 4520 |  | IVVPVCLAFLLTTLLGVLFCFNKR [Peptide E63] | 
39 | 1440 |  | LDLFKKEKINTEGHSSGIGGSSCM [Peptide E72] | 
40 | 1090 |  | RQQYFKQNCSQHESSPDISHFERS [Peptide E82] | 
41 |  | 1340 | GGSLAFGTLLCIAIV [Peptide D17] | 
42 |  | 7690 | GGSLAFGTLLCIAIVLRF [Peptide D14] | 
43 | 1060 |  | TEGHSSGIGGSSCMSSSRPSISSS [Peptide E73] | 
44 |  | 24700 | SLAFGTLLCIAIVLRFKKT [Peptide D29] | 
45 | 1210 |  | ERPEDLQLVDHVDGGDGILPRQQY [Peptide E80] | 
46 | 1240 |  | QISDHISQSCGSGQMKMFQEVSAA [Peptide E86] | 
47 |  | 997 | GGSLAFGTL [Peptide D23] | 
48 |  | 16100 | GGSLAFGTLLCIAIVLRFK [Peptide D13] | 

Row | Counts/minute bound (recombinant human IL-6 [1]) [counts/minute] | Counts/minute bound (recombinant human IL-6 [2]) [counts/minute] | Binder | also measured
49 | 1300 |  | VSVVEIEANDKKPFPEDLKSLDLF [Peptide E70] | 
50 |  | 18100 | GGSLAFGTLLCIAIVLRFKK [Peptide D12] | 
51 |  | 26400 | GSLAFGTLLCIAIVLRFKKT [Peptide D28] | 
52 | 1120 |  | ISSSDENESSQNTSSTVQYSTVVH [Peptide E75] | 
53 |  | 3950 | GGSLAFGTLLCIAIVLR [Peptide D15] | 
54 |  | 22100 | GGSLAFGTALCIAIVLRFKKT (alanine-scan variant of the domain IV 21-mer) [Peptide D55] | 
55 |  | 28500 | GGSLAFGTLLCIAAVLRFKKT (alanine-scan variant of the domain IV 21-mer) [Peptide D51] | 
56 |  | 22100 | GGSLAFGTLLCIAIVARFKKT (alanine-scan variant of the domain IV 21-mer) [Peptide D49] | 
57 |  | 23000 | GGSLAFGALLCIAIVLRFKKT (alanine-scan variant of the domain IV 21-mer) [Peptide D56] | 
58 |  | 20900 | GGSLAFGTLLCIAIVLRAKKT (alanine-scan variant of the domain IV 21-mer) [Peptide D47] | 
59 |  | 34900 | GGSLAFGTLLAIAIVLRFKKT (alanine-scan variant of the domain IV 21-mer) [Peptide D53] | 
60 |  | 27700 | GGSLAFGTLLCAAIVLRFKKT (alanine-scan variant of the domain IV 21-mer) [Peptide D52] | 
61 |  | 17900 | GGSLAFGTLLCIAIALRFKKT (alanine-scan variant of the domain IV 21-mer) [Peptide D50] | 
62 | 1230 |  | MPKSYLPQTVRQGGYMPQ [Peptide E91] | 
63 | 1200 |  | IWPNVPDPSKSHIAQWSPHTPPRH [Peptide E66] | 
64 | 4500 |  | LTTLLGVLFCFNKRDLIKKHIWPN [Peptide E64] | 
